T1: rat NgR, full length, on cells (rat, UniProt Q99M75 27-447)
T1 construct: whole, on cells; also called CHO K1 Rat NGR; rat NgR expressed on HEK293f cells
T1 sequence (looked up): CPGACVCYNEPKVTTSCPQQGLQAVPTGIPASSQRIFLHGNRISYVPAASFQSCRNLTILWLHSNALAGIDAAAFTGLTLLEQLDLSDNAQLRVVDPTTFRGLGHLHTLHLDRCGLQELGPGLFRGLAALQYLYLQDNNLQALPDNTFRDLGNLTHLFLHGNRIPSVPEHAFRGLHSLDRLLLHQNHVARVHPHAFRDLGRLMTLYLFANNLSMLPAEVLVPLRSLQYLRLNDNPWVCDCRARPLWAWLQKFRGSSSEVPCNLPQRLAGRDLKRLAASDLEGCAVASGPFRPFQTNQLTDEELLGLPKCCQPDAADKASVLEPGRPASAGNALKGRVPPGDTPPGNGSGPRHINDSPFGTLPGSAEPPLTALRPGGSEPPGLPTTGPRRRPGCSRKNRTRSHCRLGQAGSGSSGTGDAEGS

T2: human NgR, full length, on cells (human, UniProt Q9BZR6 27-447)
T2 construct: whole, on cells; also called HEK293 NGR; human NgR expressed on HEK293f cells
T2 sequence (looked up): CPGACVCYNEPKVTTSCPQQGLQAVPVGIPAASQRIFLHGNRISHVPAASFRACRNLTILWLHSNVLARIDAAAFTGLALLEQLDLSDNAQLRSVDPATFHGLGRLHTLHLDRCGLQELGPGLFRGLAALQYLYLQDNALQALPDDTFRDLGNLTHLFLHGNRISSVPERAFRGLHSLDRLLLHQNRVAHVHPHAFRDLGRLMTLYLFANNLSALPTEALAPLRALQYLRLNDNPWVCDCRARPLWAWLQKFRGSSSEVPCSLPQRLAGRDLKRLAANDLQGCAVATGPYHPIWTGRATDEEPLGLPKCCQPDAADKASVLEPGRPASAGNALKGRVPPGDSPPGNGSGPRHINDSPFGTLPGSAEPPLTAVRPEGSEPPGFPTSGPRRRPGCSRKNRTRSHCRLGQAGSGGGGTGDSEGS

T3: recombinant Rat MAG/Fc Chimera (R&D Systems, Catalog #538-MG) (rat, UniProt P07722 20-516)
T3 construct: Bought; labeled with horseradish peroxidase by the Zenon human IgG labeling kit in the assay; Fc part of the bought chimera not given; not described
T3 sequence (looked up): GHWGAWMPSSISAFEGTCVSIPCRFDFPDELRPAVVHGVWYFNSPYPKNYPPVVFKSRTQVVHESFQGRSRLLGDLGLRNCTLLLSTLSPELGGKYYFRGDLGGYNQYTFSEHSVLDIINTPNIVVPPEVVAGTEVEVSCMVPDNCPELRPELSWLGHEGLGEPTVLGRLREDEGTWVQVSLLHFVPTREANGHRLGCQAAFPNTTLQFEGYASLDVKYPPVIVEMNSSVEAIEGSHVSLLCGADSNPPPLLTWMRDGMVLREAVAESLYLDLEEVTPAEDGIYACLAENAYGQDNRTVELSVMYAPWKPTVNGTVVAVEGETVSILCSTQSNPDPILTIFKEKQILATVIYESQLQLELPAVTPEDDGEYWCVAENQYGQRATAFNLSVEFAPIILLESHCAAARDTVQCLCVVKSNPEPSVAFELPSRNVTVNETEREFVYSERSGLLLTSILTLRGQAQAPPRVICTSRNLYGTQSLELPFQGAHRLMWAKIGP

B1: AP-Nogo66 (ligand)
chain: DAAQPARRARRTYEAYVRSSGIIPVEEENPDFWNREAAEALGAAKKLQPAQTAAKNLIIFLGDGMGVSTVTAARILKGQKKDKLGPEIPLAMDRFPYVALSKTYNVDKHVPDSGATATAYLCGVKGNFQTIGLSAAARFNQCNTTRGNEVISVMNRAKKAGKSVGVVTTTRVQHASPAGTYAHTVNRNWYSDADVPASARQEGCQDIATQLISNMDIDVILGGGRKYMFRMGTPDPEYPDDYSQGGTRLDGKNLVQEWLAKRQGARYVWNRTELMQASLDPSVTHLMGLFEPGDMKYEIHRDSTLDPSLMEMTEAALRLLSRNPRGFFLFVEGGRIDHGHHESRAYRALTETIMFDDAIERAGQLTSEEDTLSLVTADHSHVFSFGGYPLRGSSIFGLAPGKARDRKAYTVLLYGNGPGYVLKDGARPDVTESESGSPEYRQQSAVPLDEETHAGEDVAVFARGPQAHLVHGVQEQTFIAHVMAFAACLEPYTACDLAPPAGTTDAAHPGYLEEALSLERIYKGVIQAIQKSDEGHPFRAYLESEVAISEELVQKYSNSALGHVNCTIKELRRLFLVDDLVDSLKSLEGPEQKLISEEDLNSAVDHHHHHH
notes: Nogo66 cloned into pAPTag5, made in HEK293 cells; also called Nogo66 fused to an alkaline phosphatase tag
B2: human recombinant NgR/Fc chimera (R&D Systems, Cat. Number 1208-NG) (Fc fusion, UniProt Q9BZR6 27-447, looked up)
chain: T2 sequence (looked up)
notes: range 1-447; Bought from R&D Systems; also called hNgR-Fc; human NgR-Fc; not shown: human Fc fragment

Assays:
[1] = target: T1, rat NgR, full length, on cells; experiment: FACS on HEK293f cells with rat NgR, AP-Nogo66 40 nM, Alexa Fluor-labelled anti-alkaline phosphatase antibody
Procedure: (§1) To further characterize the binding and competitive properties of mAbs produced as described in Example 1, a suspension of HEK293f cells transiently expressing human or rat NgR was used. 48 h after transfection the cells were plated in 96-well microtiter plates (Nunc Maxisorb) and washed with Phosphate buffered saline buffer (PBS containing 1% BSA). 1 μg/200 μl of AP-Nogo66 (final concentration 40 nM) and varying concentrations of monoclonal antibodies (20 μg, 4, 0.8 and 0.16 μg/200 μl) were added and incubated for 1 h at 4° C. A monoclonal antibody with the same isotype was used as a negative control. The binding of AP-Nogo66 was detected with an anti-alkaline Phosphatase antibody (Sigma), which was labeled with Alexa Fluor using the Zenon mouse IgG2a labeling kit (Invitrogen). The secondary antibody was incubated for 1 h at 4° C. At the end of the incubation, the cells were washed with PBS and subjected to FACS analysis. At the 20 μg/200 μl concentration (20 fold molar excess) polyclonal anti-NgR antibody and the NgR-Fc (both from R&D Systems) blocked the AP-Nogo66 binding between 60% and 70%, while mAb 50 and 51 blocked the AP-Nogo66 binding by approximately 90%. […] The AP-Nogo66 fluorescence is shifted to lower intensities (shaded; green area) in the presence of both antibodies in HEK293f cells expressing human and rat NgR.

[2] = target: T2, human NgR, full length, on cells; experiment: FACS on HEK293f cells with human NgR, AP-Nogo66 40 nM, Alexa Fluor-labelled anti-alkaline phosphatase antibody
Procedure: as §1

[3] = target: T3, recombinant Rat MAG/Fc Chimera (R&D …); experiment: competition ELISA, human NgR-Fc coated 0.2 µg/well, HRP-labelled MAG-Fc at 50 ng/ml, competitor unlabelled MAG-Fc
Procedure: To further characterize the monoclonal antibodies a competition assay similar to the binding assay of Example 2 was used to test the ability of two mAbs produced in Example 1 to inhibit MAG-Fc binding to human NgR-Fc. We immobilized NgR-Fc (0.2 μg/well, R&D Systems) on 96-well microtiter plates (Nunc Maxisorb) in 50 mM Na-carbonate buffer pH 9 over night at 4° C. followed by a 2 h blocking step with 2% BSA in Tris-HCL, pH 7.2 at room temperature. MAG-Fc (R&D Systems recombinant Rat MAG/Fc Chimera, Catalog #538-MG) was labeled with horseradish peroxidase by the Zenon human IgG labeling kit (Molecular Probes). The wells received a constant concentration of labeled MAG-Fc (final concentration 50 ng/ml in Tris-HCL, pH 7.2 with 0.1% BSA) and the indicated concentrations of mAb 50 and mAb 51. This was incubated for 60 min at room temperature and using unlabeled MAG-Fc and NgR-Fc as controls. During each incubation step plates were washed with washing buffer (10 mM Tris-HCl, pH 7.2 and 0.05% Tween 20). Labeled MAG-Fc was developed using 3,3′,5,5′-tetramethylbenzidine substrate (TMB, Pierce) under standard conditions. […] MAG-Fc and NgR-Fc competed for the binding of labeled MAG-Fc (closed circles) to human NgR-Fc (a fusion protein comprising amino acids Met 1 to Ser 447 of the human NgR and a human Fc fragment (R&D Systems); closed squares). […]

Binder | binding result [1] | binding result [2] | binding result [3]
B1 | binds | binds | –
B2 | – | – | binds
